Results from patent US20180155451A1 (published 2018).

T1: FcγRIIb (human, UniProt P31994 43-217)
T1 construct: extracellular domain; also called FcgRIIb; 2b
T1 sequence (looked up): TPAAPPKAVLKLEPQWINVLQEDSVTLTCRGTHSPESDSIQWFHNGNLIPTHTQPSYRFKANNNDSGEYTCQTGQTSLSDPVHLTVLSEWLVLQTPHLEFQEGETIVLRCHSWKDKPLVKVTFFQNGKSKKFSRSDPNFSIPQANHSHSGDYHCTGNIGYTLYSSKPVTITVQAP


Columns and labels:
FcγRIa [1] = target: T2, FcγRIa (human, UniProt P12314 16-292); experiment: SPR (Biacore), relative to GpH7-A5/GpH7-B3/GpL16-k0 = 100
T2 construct: extracellular domain; also called FcgRI; FcgRIa
Experimental: (§1) The heterodimerized antibodies He Abs in which one of the H chains was introduced with an alteration were assayed for their binding activities to each activating FcγR and inhibitory FcγR according to the method described in Example 4. […] The activating FcγRs in FIGS. 26, 27, 28, and 29 are FcγRIa, FcγRIIa (R), FcγRIIa (H), and FcγRIIIa, respectively.
(§2) Analysis of interaction between objective antibody and the FcγR was carried out using Biacore T100 (GE Healthcare). HBS-EP+ (GE Healthcare) was used as the running buffer, and the measurement temperature was set to 25° C. Chips produced by immobilizing the antigen peptide by the amine coupling method to a Series S Sencor Chip CM5 (GE Healthcare), or alternatively, chips produced by allowing preliminarily biotinylated antigen peptides to interact with and immobilize onto a Series S Sensor Chip SA (certified) (GE Healthcare) were used. Antibodies of interest were captured onto an antigen peptide-immobilized chip, and allowed to interact to each FcγR diluted with running buffer. To regenerate and repeatedly use the chip, the antibodies captured on the chip were washed off by reacting 10 mM glycine-HCl, pH 1.5.

FcγRIIb = target: T1, FcγRIIb; experiment: as above
Experimental: as §1, §2

FcγRIa [2] = target: T2, FcγRIa; experiment: SPR (Biacore); He/Con_1a (FcgRIa) divided by He/Con_2b (FcgRIIb)
Experimental: as §1, §2

T2 sequence (P12314 16-292): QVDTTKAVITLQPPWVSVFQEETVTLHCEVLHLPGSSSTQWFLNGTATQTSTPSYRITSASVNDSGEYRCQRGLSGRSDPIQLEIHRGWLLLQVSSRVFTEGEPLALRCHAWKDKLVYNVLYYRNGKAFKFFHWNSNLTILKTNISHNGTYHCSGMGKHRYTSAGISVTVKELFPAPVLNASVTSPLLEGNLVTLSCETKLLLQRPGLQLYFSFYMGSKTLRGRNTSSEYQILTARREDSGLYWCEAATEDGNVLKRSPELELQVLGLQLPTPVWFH

| Binder | He/Con_1a (Ia binding) (FcγRIa [1]) | He/Con_2b (IIb binding) (FcγRIIb) | Ia/IIb He_1a/2b (FcγRIa [2]) |
| --- | --- | --- | --- |
| GpH7-A5/GpH7-B3 variant Y300_01G/GpL16-k0 (antibody, human IgG1, kappa, heterodimerized IgG1, one H chain mutated; also called He Ab) heavy 1: not shown heavy 2: not shown light: DIVMTQSPLSLPVTPGEPASISCQASESLVHSNRNTYLHWYLQKPGQSPQLLIYKVSNRFSGVPDRFSGSGSGTDFTLKISRVEAEDVGVYYCSQNTHVPPTFGQGTKVEIERTVAAPSVFIFPPSDEQLKSGTASVVCLLNNFYPREAKVQWKVDNALQSGNSQESVTEQDSKDSTYSLSSTLTLSKADYEKHKVYACEVTHQGLSSPVTKSFNRGEC | 116 relative (control = 100) | 48.4 relative (control = 100) | 2.4 |
| GpH7-A5/GpH7-B3 variant A327_08L/GpL16-k0 (antibody, human IgG1, kappa, heterodimerized IgG1, one H chain mutated; also called He Ab) heavy 1: not shown heavy 2: not shown light: DIVMTQSPLSLPVTPGEPASISCQASESLVHSNRNTYLHWYLQKPGQSPQLLIYKVSNRFSGVPDRFSGSGSGTDFTLKISRVEAEDVGVYYCSQNTHVPPTFGQGTKVEIERTVAAPSVFIFPPSDEQLKSGTASVVCLLNNFYPREAKVQWKVDNALQSGNSQESVTEQDSKDSTYSLSSTLTLSKADYEKHKVYACEVTHQGLSSPVTKSFNRGEC | 98.6 relative (control = 100) | 63.1 relative (control = 100) | 1.56 |
| GpH7-A5/GpH7-B3 variant A327_15Y/GpL16-k0 (antibody, human IgG1, kappa, heterodimerized IgG1, one H chain mutated; also called He Ab) heavy 1: not shown heavy 2: not shown light: DIVMTQSPLSLPVTPGEPASISCQASESLVHSNRNTYLHWYLQKPGQSPQLLIYKVSNRFSGVPDRFSGSGSGTDFTLKISRVEAEDVGVYYCSQNTHVPPTFGQGTKVEIERTVAAPSVFIFPPSDEQLKSGTASVVCLLNNFYPREAKVQWKVDNALQSGNSQESVTEQDSKDSTYSLSSTLTLSKADYEKHKVYACEVTHQGLSSPVTKSFNRGEC | 96.3 relative (control = 100) | 60.8 relative (control = 100) | 1.58 |
| GpH7-A5/GpH7-B3 variant N325_11K/GpL16-k0 (antibody, human IgG1, kappa, heterodimerized IgG1, one H chain mutated; also called He Ab) heavy 1: not shown heavy 2: not shown light: DIVMTQSPLSLPVTPGEPASISCQASESLVHSNRNTYLHWYLQKPGQSPQLLIYKVSNRFSGVPDRFSGSGSGTDFTLKISRVEAEDVGVYYCSQNTHVPPTFGQGTKVEIERTVAAPSVFIFPPSDEQLKSGTASVVCLLNNFYPREAKVQWKVDNALQSGNSQESVTEQDSKDSTYSLSSTLTLSKADYEKHKVYACEVTHQGLSSPVTKSFNRGEC | 80.9 relative (control = 100) | 10.4 relative (control = 100) | 7.81 |
| GpH7-A5/GpH7-B3 variant N325_12R/GpL16-k0 (antibody, human IgG1, kappa, heterodimerized IgG1, one H chain mutated; also called He Ab) heavy 1: not shown heavy 2: not shown light: DIVMTQSPLSLPVTPGEPASISCQASESLVHSNRNTYLHWYLQKPGQSPQLLIYKVSNRFSGVPDRFSGSGSGTDFTLKISRVEAEDVGVYYCSQNTHVPPTFGQGTKVEIERTVAAPSVFIFPPSDEQLKSGTASVVCLLNNFYPREAKVQWKVDNALQSGNSQESVTEQDSKDSTYSLSSTLTLSKADYEKHKVYACEVTHQGLSSPVTKSFNRGEC | 84.2 relative (control = 100) | 19.1 relative (control = 100) | 4.41 |
| GpH7-A5/GpH7-B3 variant A327_05P/GpL16-k0 (antibody, human IgG1, kappa, heterodimerized IgG1, one H chain mutated; also called He Ab) heavy 1: not shown heavy 2: not shown light: DIVMTQSPLSLPVTPGEPASISCQASESLVHSNRNTYLHWYLQKPGQSPQLLIYKVSNRFSGVPDRFSGSGSGTDFTLKISRVEAEDVGVYYCSQNTHVPPTFGQGTKVEIERTVAAPSVFIFPPSDEQLKSGTASVVCLLNNFYPREAKVQWKVDNALQSGNSQESVTEQDSKDSTYSLSSTLTLSKADYEKHKVYACEVTHQGLSSPVTKSFNRGEC | 99.3 relative (control = 100) | 69.3 relative (control = 100) | 1.43 |
| GpH7-A5/GpH7-B3 variant N325_19Q/GpL16-k0 (antibody, human IgG1, kappa, heterodimerized IgG1, one H chain mutated; also called He Ab) heavy 1: not shown heavy 2: not shown light: DIVMTQSPLSLPVTPGEPASISCQASESLVHSNRNTYLHWYLQKPGQSPQLLIYKVSNRFSGVPDRFSGSGSGTDFTLKISRVEAEDVGVYYCSQNTHVPPTFGQGTKVEIERTVAAPSVFIFPPSDEQLKSGTASVVCLLNNFYPREAKVQWKVDNALQSGNSQESVTEQDSKDSTYSLSSTLTLSKADYEKHKVYACEVTHQGLSSPVTKSFNRGEC | 99.1 relative (control = 100) | 69.1 relative (control = 100) | 1.43 |
| GpH7-A5/GpH7-B3 variant A327_11K/GpL16-k0 (antibody, human IgG1, kappa, heterodimerized IgG1, one H chain mutated; also called He Ab) heavy 1: not shown heavy 2: not shown light: DIVMTQSPLSLPVTPGEPASISCQASESLVHSNRNTYLHWYLQKPGQSPQLLIYKVSNRFSGVPDRFSGSGSGTDFTLKISRVEAEDVGVYYCSQNTHVPPTFGQGTKVEIERTVAAPSVFIFPPSDEQLKSGTASVVCLLNNFYPREAKVQWKVDNALQSGNSQESVTEQDSKDSTYSLSSTLTLSKADYEKHKVYACEVTHQGLSSPVTKSFNRGEC | 86.1 relative (control = 100) | 12.5 relative (control = 100) | 6.87 |
| GpH7-A5/GpH7-B3 variant A327_16H/GpL16-k0 (antibody, human IgG1, kappa, heterodimerized IgG1, one H chain mutated; also called He Ab) heavy 1: not shown heavy 2: not shown light: DIVMTQSPLSLPVTPGEPASISCQASESLVHSNRNTYLHWYLQKPGQSPQLLIYKVSNRFSGVPDRFSGSGSGTDFTLKISRVEAEDVGVYYCSQNTHVPPTFGQGTKVEIERTVAAPSVFIFPPSDEQLKSGTASVVCLLNNFYPREAKVQWKVDNALQSGNSQESVTEQDSKDSTYSLSSTLTLSKADYEKHKVYACEVTHQGLSSPVTKSFNRGEC | 96.5 relative (control = 100) | 63.5 relative (control = 100) | 1.52 |
| GpH7-A5/GpH7-B3 variant A327_19Q/GpL16-k0 (antibody, human IgG1, kappa, heterodimerized IgG1, one H chain mutated; also called He Ab) heavy 1: not shown heavy 2: not shown light: DIVMTQSPLSLPVTPGEPASISCQASESLVHSNRNTYLHWYLQKPGQSPQLLIYKVSNRFSGVPDRFSGSGSGTDFTLKISRVEAEDVGVYYCSQNTHVPPTFGQGTKVEIERTVAAPSVFIFPPSDEQLKSGTASVVCLLNNFYPREAKVQWKVDNALQSGNSQESVTEQDSKDSTYSLSSTLTLSKADYEKHKVYACEVTHQGLSSPVTKSFNRGEC | 96.2 relative (control = 100) | 54.2 relative (control = 100) | 1.78 |
| GpH7-A5/GpH7-B3 variant N325_16H/GpL16-k0 (antibody, human IgG1, kappa, heterodimerized IgG1, one H chain mutated; also called He Ab) heavy 1: not shown heavy 2: not shown light: DIVMTQSPLSLPVTPGEPASISCQASESLVHSNRNTYLHWYLQKPGQSPQLLIYKVSNRFSGVPDRFSGSGSGTDFTLKISRVEAEDVGVYYCSQNTHVPPTFGQGTKVEIERTVAAPSVFIFPPSDEQLKSGTASVVCLLNNFYPREAKVQWKVDNALQSGNSQESVTEQDSKDSTYSLSSTLTLSKADYEKHKVYACEVTHQGLSSPVTKSFNRGEC | 95.1 relative (control = 100) | 70.1 relative (control = 100) | 1.36 |
| GpH7-A5/GpH7-B3 variant A327_04F/GpL16-k0 (antibody, human IgG1, kappa, heterodimerized IgG1, one H chain mutated; also called He Ab) heavy 1: not shown heavy 2: not shown light: DIVMTQSPLSLPVTPGEPASISCQASESLVHSNRNTYLHWYLQKPGQSPQLLIYKVSNRFSGVPDRFSGSGSGTDFTLKISRVEAEDVGVYYCSQNTHVPPTFGQGTKVEIERTVAAPSVFIFPPSDEQLKSGTASVVCLLNNFYPREAKVQWKVDNALQSGNSQESVTEQDSKDSTYSLSSTLTLSKADYEKHKVYACEVTHQGLSSPVTKSFNRGEC | 99.1 relative (control = 100) | 63.7 relative (control = 100) | 1.56 |
| GpH7-A5/GpH7-B3 variant A327_06M/GpL16-k0 (antibody, human IgG1, kappa, heterodimerized IgG1, one H chain mutated; also called He Ab) heavy 1: not shown heavy 2: not shown light: DIVMTQSPLSLPVTPGEPASISCQASESLVHSNRNTYLHWYLQKPGQSPQLLIYKVSNRFSGVPDRFSGSGSGTDFTLKISRVEAEDVGVYYCSQNTHVPPTFGQGTKVEIERTVAAPSVFIFPPSDEQLKSGTASVVCLLNNFYPREAKVQWKVDNALQSGNSQESVTEQDSKDSTYSLSSTLTLSKADYEKHKVYACEVTHQGLSSPVTKSFNRGEC | 103 relative (control = 100) | 59.5 relative (control = 100) | 1.74 |
| GpH7-A5/GpH7-B3 variant N325_05P/GpL16-k0 (antibody, human IgG1, kappa, heterodimerized IgG1, one H chain mutated; also called He Ab) heavy 1: not shown heavy 2: not shown light: DIVMTQSPLSLPVTPGEPASISCQASESLVHSNRNTYLHWYLQKPGQSPQLLIYKVSNRFSGVPDRFSGSGSGTDFTLKISRVEAEDVGVYYCSQNTHVPPTFGQGTKVEIERTVAAPSVFIFPPSDEQLKSGTASVVCLLNNFYPREAKVQWKVDNALQSGNSQESVTEQDSKDSTYSLSSTLTLSKADYEKHKVYACEVTHQGLSSPVTKSFNRGEC | 88.8 relative (control = 100) | 26 relative (control = 100) | 3.42 |
| GpH7-A5/GpH7-B3 variant A327_13S/GpL16-k0 (antibody, human IgG1, kappa, heterodimerized IgG1, one H chain mutated; also called He Ab) heavy 1: not shown heavy 2: not shown light: DIVMTQSPLSLPVTPGEPASISCQASESLVHSNRNTYLHWYLQKPGQSPQLLIYKVSNRFSGVPDRFSGSGSGTDFTLKISRVEAEDVGVYYCSQNTHVPPTFGQGTKVEIERTVAAPSVFIFPPSDEQLKSGTASVVCLLNNFYPREAKVQWKVDNALQSGNSQESVTEQDSKDSTYSLSSTLTLSKADYEKHKVYACEVTHQGLSSPVTKSFNRGEC | 102 relative (control = 100) | 79.5 relative (control = 100) | 1.29 |
| GpH7-A5/GpH7-B3 variant N325_02A/GpL16-k0 (antibody, human IgG1, kappa, heterodimerized IgG1, one H chain mutated; also called He Ab) heavy 1: not shown heavy 2: not shown light: DIVMTQSPLSLPVTPGEPASISCQASESLVHSNRNTYLHWYLQKPGQSPQLLIYKVSNRFSGVPDRFSGSGSGTDFTLKISRVEAEDVGVYYCSQNTHVPPTFGQGTKVEIERTVAAPSVFIFPPSDEQLKSGTASVVCLLNNFYPREAKVQWKVDNALQSGNSQESVTEQDSKDSTYSLSSTLTLSKADYEKHKVYACEVTHQGLSSPVTKSFNRGEC | 96.8 relative (control = 100) | 64.4 relative (control = 100) | 1.5 |
